Test results: US11524046B2, “Biofilm prevention, disruption and treatment with bacteriophage lysin” (priority 2012, dated 2022)
Read-outs that look alike come from different tables or passages of the source.

Legend:
Streptococcus mutans = test: MIC of PlySs2, susceptible and non-susceptible bacterial strains; format: cell-based; conditions: Streptococcus mutans (12)
Streptococcus pneumoniae = test: as above; format: cell-based; conditions: Streptococcus pneumoniae (26)
Bacillus cereus = Bacillus cereus (10)
[1] = system: MRSA biofilms grown on catheters (strain ATCC BAA-42); test: Catheter biofilm residual CFU, BacTiter-Glo luciferase estimate
[2] = system: Streptococcus agalactiae, Group B; test: MIC of PlySs2, susceptible and non-susceptible bacterial strains; format: cell-based; conditions: Group B (51)
Acinetobacter baumannii = Acinetobacter baumannii (8)
[3] = system: Staphylococcus epidermidis strains; format: cell-based
[4] = system: Staphylococcus epidermidis biofilms; test: Biofilm eradicating concentration (BEC), 24 h biofilms in 24 well plates, crystal violet; format: cell-based
[5] = CFS 533, NRS6, (VISE), bloodstream USA

B1: PlySs2: bacteriophage lysin derived from Streptococcus suis, amino acid sequence of FIG. 5 / SEQ ID NO: 1; CHAP and SH3 domains (protein, listed as Streptococcus suis)
chain: MTTVNEALNNVRAQVGSGVSVGNGECYALASWYERMISPDATVGLGAGVGWVSGAIGDTISAKNIGSSYNWQANGWTVSTSGPFKAGQIVTLGATPGNPYGHVVIVEAVDGDRLTILEQNYGGKRYPVRNYYSAASYRQQVVHYITPPGTVAQSAPNLAGSRSYRETGTMTVTVDALNVRRAPNTSGEIVAVYKRGESFDYDTVIIDVNGYVWVSYIGGSGKRNYVATGATKDGKRFGNAWGTFK
**Q.** With B1 as the molecule, how does the “MIC 50%” value (Streptococcus mutans) read?
**A.** 64 µg/mL

**Q.** What about the “MIC 90%” value (Streptococcus mutans) of the same molecule?
**A.** 256 µg/mL

**Q.** And the “MIC Range” value (Streptococcus mutans)?
**A.** 2 to 256 µg/mL

**Q.** What about the “MIC 50%” value (Streptococcus pneumoniae) of the same molecule?
**A.** 16 µg/mL

**Q.** What about the “MIC 90%” value (Streptococcus pneumoniae) of the same molecule?
**A.** 64 µg/mL

**Q.** What about the “MIC Range” value (Streptococcus pneumoniae) of the same molecule?
**A.** 1 to 64 µg/mL

**Q.** What about the “MIC 50%” value (Bacillus cereus) of the same molecule?
**A.** >512 µg/mL

**Q.** What about the “MIC 90%” value (Bacillus cereus) of the same molecule?
**A.** >512 µg/mL

**Q.** And the “MIC Range” value (Bacillus cereus)?
**A.** >512 µg/mL

**Q.** And the “CFUs remaining in catheter biofilm” value ([1]; 1×MIC, 24 hours, 100 CFU/ml is the limit of detection)?
**A.** 100 CFU/ml

**Q.** And the “lowest concentration active at removing biofilm bacteria” value ([1]; titration, CFU)?
**A.** 0.01 ×MIC

**Q.** What about the “MIC 50%” value [2] of the same molecule?
**A.** 8 µg/mL

**Q.** And the “MIC 90%” value [2]?
**A.** 16 µg/mL

**Q.** And the “MIC Range” value [2]?
**A.** 1 to 64 µg/mL

**Q.** And the “MIC 50%” value (Acinetobacter baumannii)?
**A.** >512 µg/mL

**Q.** And the “MIC 90%” value (Acinetobacter baumannii)?
**A.** >512 µg/mL

**Q.** What about the “MIC Range” value (Acinetobacter baumannii) of the same molecule?
**A.** >512 µg/mL

**Q.** What about the MIC ([3]; CFS 224, HER 1292) of the same molecule?
**A.** 512 µg/mL

**Q.** And the MIC ([3]; CFS 225, HPH-6)?
**A.** 128 µg/mL

**Q.** And the MIC ([3]; CFS 226, HPH-5)?
**A.** 512 µg/mL

**Q.** And the MIC ([3]; CFS 227, HCN-4)?
**A.** >512 µg/mL

**Q.** What about the MIC ([3]; CFS 272, NRS53 (VISE)) of the same molecule?
**A.** 128 µg/mL

**Q.** And the MIC ([3]; CFS 280, NRS101 (MRSE))?
**A.** 128 µg/mL

**Q.** And the MIC ([3]; CFS 300, NRS8, (VISE))?
**A.** 32 µg/mL

**Q.** What about the MIC ([3]; CFS 313, NRS34 (VISE)) of the same molecule?
**A.** 8 µg/mL

**Q.** What about the MIC [3, 5] of the same molecule?
**A.** >512 µg/mL

**Q.** What about the MIC ([3]; CFS 769, NRS101) of the same molecule?
**A.** 64 µg/mL

**Q.** And the BEC ([4]; CFS 166, Environmental lab contaiminant)?
**A.** 5.12 µg/mL

**Q.** What about the BEC ([4]; CFS 224, HER 1292) of the same molecule?
**A.** 5.12 µg/mL

**Q.** What about the BEC ([4]; CFS 225, HPH-6) of the same molecule?
**A.** 0.512 µg/mL

**Q.** What about the BEC ([4]; CFS 226, HPH-5) of the same molecule?
**A.** 5.12 µg/mL

**Q.** And the BEC ([4]; CFS 227, HCN-4)?
**A.** 5.12 µg/mL

**Q.** What about the BEC ([4]; CFS 272, NRS53 (VISE)) of the same molecule?
**A.** 0.215 µg/mL

**Q.** What about the BEC ([4]; CFS 280, NRS101 (MRSE)) of the same molecule?
**A.** 0.512 µg/mL

**Q.** What about the BEC ([4]; CFS 300, NRS8, (VISE)) of the same molecule?
**A.** 0.512 µg/mL

**Q.** What about the BEC ([4]; CFS 313, NRS34 (VISE)) of the same molecule?
**A.** 0.512 µg/mL

**Q.** What about the BEC [4, 5] of the same molecule?
**A.** 0.512 µg/mL

**Q.** And the BEC ([4]; CFS 552, ATCC #12228 (MSSE))?
**A.** 51.2 µg/mL

**Q.** What about the BEC ([4]; CFS 769, NRS101) of the same molecule?
**A.** 0.512 µg/mL

**Q.** What about the BEC ([4]; CFS 1152, ATCC-14990) of the same molecule?
**A.** 5.12 µg/mL

**Q.** What about the BEC ([4]; CFS 1154, ATCC-49461) of the same molecule?
**A.** 5.12 µg/mL

**Q.** And the BEC ([4]; CFS 1161, NRS850-VCU028)?
**A.** 5.12 µg/mL

**Q.** What about the BEC ([4]; CFS 1164, NRS853-VCU041) of the same molecule?
**A.** 5.12 µg/mL

**Q.** And the BEC ([4]; CFS 1165, NRS854-VCU045)?
**A.** 5.12 µg/mL

**Q.** And the BEC ([4]; CFS 1168, NRS857-VCU065)?
**A.** 0.512 µg/mL

**Q.** What about the BEC ([4]; CFS 1174, NRS864-VCU112) of the same molecule?
**A.** 51.2 µg/mL

**Q.** And the BEC ([4]; CFS 1184, NRS874-VCU126)?
**A.** 5.12 µg/mL

**Q.** What about the BEC ([4]; CFS 1185, NRS875-VCU127) of the same molecule?
**A.** 5.12 µg/mL

**Q.** And the BEC ([4]; CFS 1186, NRS876-VCU128)?
**A.** 0.512 µg/mL
